The target in this data set is T1, CasEnd-29 (synthetic construct).
T1 chain: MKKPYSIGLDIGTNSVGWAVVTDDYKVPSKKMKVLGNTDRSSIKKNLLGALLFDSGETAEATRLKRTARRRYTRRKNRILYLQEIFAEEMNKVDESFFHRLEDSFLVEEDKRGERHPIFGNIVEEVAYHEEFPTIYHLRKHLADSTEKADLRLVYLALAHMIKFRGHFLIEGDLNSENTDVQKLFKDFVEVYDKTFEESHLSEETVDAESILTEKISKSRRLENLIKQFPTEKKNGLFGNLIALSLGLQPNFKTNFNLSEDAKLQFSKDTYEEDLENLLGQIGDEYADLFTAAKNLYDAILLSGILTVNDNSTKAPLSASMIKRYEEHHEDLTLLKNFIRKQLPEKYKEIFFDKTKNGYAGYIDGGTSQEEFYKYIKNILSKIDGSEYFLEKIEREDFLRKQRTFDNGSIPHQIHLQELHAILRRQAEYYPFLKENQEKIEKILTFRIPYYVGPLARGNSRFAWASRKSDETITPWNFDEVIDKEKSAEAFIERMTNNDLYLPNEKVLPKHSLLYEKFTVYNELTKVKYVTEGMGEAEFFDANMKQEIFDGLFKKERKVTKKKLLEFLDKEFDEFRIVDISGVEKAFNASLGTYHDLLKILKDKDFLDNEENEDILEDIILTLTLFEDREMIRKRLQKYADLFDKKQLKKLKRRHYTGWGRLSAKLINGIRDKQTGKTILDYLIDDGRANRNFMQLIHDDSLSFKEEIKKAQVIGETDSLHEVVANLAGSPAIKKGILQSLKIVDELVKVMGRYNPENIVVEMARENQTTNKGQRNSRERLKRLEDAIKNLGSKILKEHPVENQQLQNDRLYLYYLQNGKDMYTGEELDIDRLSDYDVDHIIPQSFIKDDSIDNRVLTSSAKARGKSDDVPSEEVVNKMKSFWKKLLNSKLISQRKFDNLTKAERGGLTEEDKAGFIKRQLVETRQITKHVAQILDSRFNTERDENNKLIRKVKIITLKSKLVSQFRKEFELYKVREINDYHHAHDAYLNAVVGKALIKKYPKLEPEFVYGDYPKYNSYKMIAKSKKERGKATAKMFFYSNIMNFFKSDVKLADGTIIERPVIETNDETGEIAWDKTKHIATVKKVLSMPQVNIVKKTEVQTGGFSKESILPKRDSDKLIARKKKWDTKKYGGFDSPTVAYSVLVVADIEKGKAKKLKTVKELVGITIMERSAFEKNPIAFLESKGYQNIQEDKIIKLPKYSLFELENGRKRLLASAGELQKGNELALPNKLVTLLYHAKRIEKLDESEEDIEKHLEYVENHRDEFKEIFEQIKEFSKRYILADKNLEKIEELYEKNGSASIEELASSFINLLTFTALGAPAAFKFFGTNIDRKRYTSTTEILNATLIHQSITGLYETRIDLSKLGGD
In words: cell_activity; +++; HEK293T; PAM not stated. The method, boiled down: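 Editing activity was scored as the fraction of GFP+ cells on day 4 by flow cytometry. BFP-expressing HEK293T cells (250,000) received by nucleofection 200 ng plasmid for the RT-Cas fusion protein and 200 ng template RNA plasmid designed to convert BFP to GFP.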

This passage reports activity results from patent US20250092426, “CAS ENDONUCLEASES AND RELATED METHODS” (Flagship Pioneering Innovations VII, LLC, published 2025).

Some results are limits rather than exact numbers.

B1: BFP-to-GFP template RNA ; BFP reporter protospacer (ssRNA ; dsDNA)
RNA: GCCGAAGCACUGCACGCCGUGUUUUAGAGCUAGAAAUAGCAAGUUAAAAUAAGGCUAGUCCGUUAUCAACUUGAAAAAGUGGCACCGAGUCGGUGCACCCUGACGUACGGCGUGCAGUGCUU
DNA 1: GCCGAAGCACTGCACGCCGT
DNA 2: ACGGCGTGCAGTGCTTCGGC
For B1, the activity was ≥ 100 % of reference.
